This note sets out measurements from patent US20120034160A1 (AbbVie / Abbott, published 2012).

In assay [1] the target is T1, Recombinant Human IL-1β (human, UniProt P01584 117-269).
T1 construct: bought reagent; also called IL-1B
The assay can be described thus: Biacore SPR; C-terminal VD. How it is done:
(§1) The BIACORE assay (Biacore, Inc, Piscataway, N.J.) determines the affinity of antibodies or DVD-Ig with kinetic measurements of on-rate and off-rate constants. Binding of antibodies or DVD-Ig to a target antigen (for example, a purified recombinant target antigen) was determined by surface plasmon resonance-based measurements with a Biacore® 1000 or 3000 instrument (Biacore® AB, Uppsala, Sweden) using running HBS-EP (10 mM HEPES [pH 7.4], 150 mM NaCl, 3 mM EDTA, and 0.005% surfactant P20) at 25° C. All chemicals were obtained from Biacore® AB (Uppsala, Sweden) or otherwise from a different source as described in the text. For example, approximately 5000 RU of goat anti-mouse IgG, (Fcγ), fragment specific polyclonal antibody (Pierce Biotechnology Inc, Rockford, Ill.) diluted in 10 mM sodium acetate (pH 4.5) was directly immobilized across a CM5 research grade biosensor chip using a standard amine coupling kit according to manufacturer's instructions and procedures at 25 μg/ml. Unreacted moieties on the biosensor surface were blocked with ethanolamine. Modified carboxymethyl dextran surface in flowcell 2 and 4 was used as a reaction surface. Unmodified carboxymethyl dextran without goat anti-mouse IgG in flow cell 1 and 3 was used as the reference surface. For kinetic analysis, rate equations derived from the 1:1 Langmuir binding model were fitted simultaneously to association and dissociation phases of all eight injections (using global fit analysis) with the use of Biaevaluation 4.0.1 software. Purified antibodies or DVD-Ig were diluted in HEPES-buffered saline for capture across goat anti-mouse IgG specific reaction surfaces. Antibodies or DVD-Ig to be captured as a ligand (25 μg/ml) were injected over reaction matrices at a flow rate of 5 μl/min. The association and dissociation rate constants, kₒₙ (M⁻¹s⁻¹) and koff (s⁻¹) were determined under a continuous flow rate of 25 μl/min. Rate constants were derived by making kinetic binding measurements at different antigen concentrations ranging from 10−200 nM. The equilibrium dissociation constant (M) of the reaction between antibodies or DVD-Igs and the target antigen was then calculated from the kinetic rate constants by the following formula: KD=koff/kₒₙ. Binding was recorded as a function of time and kinetic rate constants are calculated.

Assay [2] has as its target T2, Recombinant Human IL-17 (human, UniProt Q16552 20-155, limits assumed).
T2 construct: bought reagent
T2 sequence (looked up): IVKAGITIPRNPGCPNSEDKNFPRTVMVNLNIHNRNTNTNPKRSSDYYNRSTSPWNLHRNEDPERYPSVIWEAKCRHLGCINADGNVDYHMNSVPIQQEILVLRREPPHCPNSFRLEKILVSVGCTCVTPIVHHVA
The assay can be described thus: Biacore SPR; N-terminal VD. On the procedure: as §1
In general terms: In SPR one partner is held on a chip, and binding of the other changes the refractive index at the surface.

One may read the Kd as a measure of binding affinity in units of concentration. One may read the koff as the first-order rate constant of dissociation. One may read the kon as a measure of how fast the partners come together.

Where a chain is given by its changes, count along the chain named.

B1: DVD1606 (bispecific antibody, human IgG1, kappa)
heavy: not shown
light: EIVLTQSPDFQSVTPKEKVTITCRASQDIGSELHWYQQKPDQPPKLLIKYASHSTSGVPSRFSGSGSGTDFTLTINGLEAEDAGTYYCHQTDSLPYTFGPGTKVDIKRTVAAPSVFIFPPDTVVTQSPAFLSVTPGEKVTITCITSTDIDVDMNWYQQKPDQPPKLLISQGNTLRPGVPSRFSSSGSGTDFTFTISSLEAEDAATYYCLQSDNLPLTFGQGTKLEIKRTVAAPSVFIFPPSDEQLKSGTASVVCLLNNFYPREAKVQWKVDNALQSGNSQESVTEQDSKDSTYSLSSTLTLSKADYEKHKVYACEVTHQGLSSPVTKSFNRGEC
notes: DVD-Ig, outer AB274, inner AB271, linker set 2; V1 wt hIgG1, V2 kappa; also called DVD1606H; DVD1606L
Take B1: in assay [1], the Kd was determined as 0.32 nM, the koff turned out to be 0.00044 s⁻¹ and the kon worked out at 1.4e+06 M⁻¹ s⁻¹. Moreover, in assay [2], the Kd stood at 0.00067 nM, the koff worked out at 3e-06 s⁻¹ and the kon was found to be 4.4e+06 M⁻¹ s⁻¹.

B2: DVD1610 (bispecific antibody, human IgG1, kappa)
heavy: not shown
light: EIVLTQSPDFQSVTPKEKVTITCRASQNIGSELHWYQQKPDQSPKLLIKYASHSISGVPSRFSGSGSGTDFTLTINGLEAEDAATYYCHQSDTLPHTFGQGTKVDIKRTVAAPSVFIFPPDIQMTQSPSSLSASVGDRVTITCRASGNIHNYLTWYQQTPGKAPKLLIYNAKTLADGVPSRFSGSGSGTDYTFTISSLQPEDIATYYCQHFWSIPYTFGQGTKLQITRTVAAPSVFIFPPSDEQLKSGTASVVCLLNNFYPREAKVQWKVDNALQSGNSQESVTEQDSKDSTYSLSSTLTLSKADYEKHKVYACEVTHQGLSSPVTKSFNRGEC
notes: V1 wt hIgG1, V2 kappa; also called DVD1610H; DVD1610L
B2: in assay [1], the Kd stood at 0.25 nM, the koff was determined as 7.3e-05 s⁻¹ and the kon is 290000 M⁻¹ s⁻¹. In addition, in assay [2], the Kd is 0.017 nM, the koff was 5.7e-05 s⁻¹ and the kon stood at 3.5e+06 M⁻¹ s⁻¹.

B3: DVD1612 (bispecific antibody, human IgG1, kappa)
heavy: not shown
light: B2 light
notes: V1 wt hIgG1, V2 kappa; also called DVD1612H; DVD1612L
For B3, in assay [1], the Kd came to 0.15 nM, the koff was found to be 2.5e-05 s⁻¹ and the kon worked out at 160000 M⁻¹ s⁻¹. Further, in assay [2], the Kd turned out to be 0.016 nM, the koff was found to be 5.1e-05 s⁻¹ and the kon stood at 3.2e+06 M⁻¹ s⁻¹.

B4: DVD1608 (bispecific antibody, human IgG1, kappa)
heavy: not shown
light: EIVLTQSPDFQSVTPKEKVTITCRASQDIGSELHWYQQKPDQPPKLLIKYASHSTSGVPSRFSGSGSGTDFTLTINGLEAEDAGTYYCHQTDSLPYTFGPGTKVDIKRTVAAPSVFIFPPETTVTQSPSSLSASVGDRVTITCITSTDIDVDMNWYQQKPGKPPKLLISQGNTLRPGVPSRFSSSGSGTDFTFTISSLQPEDFATYYCLQSDNLPLTFGQGTKLEIKRTVAAPSVFIFPPSDEQLKSGTASVVCLLNNFYPREAKVQWKVDNALQSGNSQESVTEQDSKDSTYSLSSTLTLSKADYEKHKVYACEVTHQGLSSPVTKSFNRGEC
notes: DVD-Ig, outer AB274, inner AB272, linker set 2; V1 wt hIgG1, V2 kappa; also called DVD1608H; DVD1608L
As for B4, in assay [1], the Kd was determined as 0.37 nM, the koff came out at 0.00056 s⁻¹ and the kon was found to be 1.5e+06 M⁻¹ s⁻¹. Besides, in assay [2], the Kd came to 0.0026 nM, the koff amounted to 1.2e-05 s⁻¹ and the kon was 4.8e+06 M⁻¹ s⁻¹.

B5: DVD1614 (bispecific antibody, human IgG1, kappa)
heavy: not shown
light: B4 light with D28N, P43S, T55I, G84A, T91S, S93T, Y96H, P100Q, E121D, T123Q
notes: DVD-Ig, outer AB275, inner AB270, linker set 2; V1 wt hIgG1, V2 kappa; also called DVD1614H; DVD1614L
Take B5: in assay [1], the Kd came to 0.18 nM, the koff is 0.0003 s⁻¹ and the kon was determined as 1.7e+06 M⁻¹ s⁻¹. In assay [2], the Kd came to 0.014 nM, the koff came to 4.8e-05 s⁻¹ and the kon was 3.5e+06 M⁻¹ s⁻¹.
